Test results taken from the supplement of paper PMC5998384.

Legend:
HeLa Kyoto [1] = assay: solubility change mitosis vs G1/S (difference of NP-40 vs SDS log2 ratios) (log2 ratio difference); higher = more soluble in mitosis
HeLa Kyoto [2] = assay: solubility in G1/S (NP-40 vs SDS abundance) (log2 ratio); higher = more soluble; conditions: cell cycle stage: G1/S
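Throughout, for solubility change mitosis vs G1/S (difference of NP-40 vs SDS log2 ratios): synchronized HeLa Kyoto cells (double thymidine block for G1/S, nocodazole release for mitosis), protein amounts in NP-40 versus SDS lysates quantified by mass spectrometry, three biological replicates.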
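Throughout, for solubility in G1/S (NP-40 vs SDS abundance): HeLa Kyoto cells arrested at G1/S by double thymidine block, proteins quantified by TMT10plex mass spectrometry in mild NP-40 versus SDS extracts, three biological replicates.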

Sequence of MAP1A (chain, as listed by the source): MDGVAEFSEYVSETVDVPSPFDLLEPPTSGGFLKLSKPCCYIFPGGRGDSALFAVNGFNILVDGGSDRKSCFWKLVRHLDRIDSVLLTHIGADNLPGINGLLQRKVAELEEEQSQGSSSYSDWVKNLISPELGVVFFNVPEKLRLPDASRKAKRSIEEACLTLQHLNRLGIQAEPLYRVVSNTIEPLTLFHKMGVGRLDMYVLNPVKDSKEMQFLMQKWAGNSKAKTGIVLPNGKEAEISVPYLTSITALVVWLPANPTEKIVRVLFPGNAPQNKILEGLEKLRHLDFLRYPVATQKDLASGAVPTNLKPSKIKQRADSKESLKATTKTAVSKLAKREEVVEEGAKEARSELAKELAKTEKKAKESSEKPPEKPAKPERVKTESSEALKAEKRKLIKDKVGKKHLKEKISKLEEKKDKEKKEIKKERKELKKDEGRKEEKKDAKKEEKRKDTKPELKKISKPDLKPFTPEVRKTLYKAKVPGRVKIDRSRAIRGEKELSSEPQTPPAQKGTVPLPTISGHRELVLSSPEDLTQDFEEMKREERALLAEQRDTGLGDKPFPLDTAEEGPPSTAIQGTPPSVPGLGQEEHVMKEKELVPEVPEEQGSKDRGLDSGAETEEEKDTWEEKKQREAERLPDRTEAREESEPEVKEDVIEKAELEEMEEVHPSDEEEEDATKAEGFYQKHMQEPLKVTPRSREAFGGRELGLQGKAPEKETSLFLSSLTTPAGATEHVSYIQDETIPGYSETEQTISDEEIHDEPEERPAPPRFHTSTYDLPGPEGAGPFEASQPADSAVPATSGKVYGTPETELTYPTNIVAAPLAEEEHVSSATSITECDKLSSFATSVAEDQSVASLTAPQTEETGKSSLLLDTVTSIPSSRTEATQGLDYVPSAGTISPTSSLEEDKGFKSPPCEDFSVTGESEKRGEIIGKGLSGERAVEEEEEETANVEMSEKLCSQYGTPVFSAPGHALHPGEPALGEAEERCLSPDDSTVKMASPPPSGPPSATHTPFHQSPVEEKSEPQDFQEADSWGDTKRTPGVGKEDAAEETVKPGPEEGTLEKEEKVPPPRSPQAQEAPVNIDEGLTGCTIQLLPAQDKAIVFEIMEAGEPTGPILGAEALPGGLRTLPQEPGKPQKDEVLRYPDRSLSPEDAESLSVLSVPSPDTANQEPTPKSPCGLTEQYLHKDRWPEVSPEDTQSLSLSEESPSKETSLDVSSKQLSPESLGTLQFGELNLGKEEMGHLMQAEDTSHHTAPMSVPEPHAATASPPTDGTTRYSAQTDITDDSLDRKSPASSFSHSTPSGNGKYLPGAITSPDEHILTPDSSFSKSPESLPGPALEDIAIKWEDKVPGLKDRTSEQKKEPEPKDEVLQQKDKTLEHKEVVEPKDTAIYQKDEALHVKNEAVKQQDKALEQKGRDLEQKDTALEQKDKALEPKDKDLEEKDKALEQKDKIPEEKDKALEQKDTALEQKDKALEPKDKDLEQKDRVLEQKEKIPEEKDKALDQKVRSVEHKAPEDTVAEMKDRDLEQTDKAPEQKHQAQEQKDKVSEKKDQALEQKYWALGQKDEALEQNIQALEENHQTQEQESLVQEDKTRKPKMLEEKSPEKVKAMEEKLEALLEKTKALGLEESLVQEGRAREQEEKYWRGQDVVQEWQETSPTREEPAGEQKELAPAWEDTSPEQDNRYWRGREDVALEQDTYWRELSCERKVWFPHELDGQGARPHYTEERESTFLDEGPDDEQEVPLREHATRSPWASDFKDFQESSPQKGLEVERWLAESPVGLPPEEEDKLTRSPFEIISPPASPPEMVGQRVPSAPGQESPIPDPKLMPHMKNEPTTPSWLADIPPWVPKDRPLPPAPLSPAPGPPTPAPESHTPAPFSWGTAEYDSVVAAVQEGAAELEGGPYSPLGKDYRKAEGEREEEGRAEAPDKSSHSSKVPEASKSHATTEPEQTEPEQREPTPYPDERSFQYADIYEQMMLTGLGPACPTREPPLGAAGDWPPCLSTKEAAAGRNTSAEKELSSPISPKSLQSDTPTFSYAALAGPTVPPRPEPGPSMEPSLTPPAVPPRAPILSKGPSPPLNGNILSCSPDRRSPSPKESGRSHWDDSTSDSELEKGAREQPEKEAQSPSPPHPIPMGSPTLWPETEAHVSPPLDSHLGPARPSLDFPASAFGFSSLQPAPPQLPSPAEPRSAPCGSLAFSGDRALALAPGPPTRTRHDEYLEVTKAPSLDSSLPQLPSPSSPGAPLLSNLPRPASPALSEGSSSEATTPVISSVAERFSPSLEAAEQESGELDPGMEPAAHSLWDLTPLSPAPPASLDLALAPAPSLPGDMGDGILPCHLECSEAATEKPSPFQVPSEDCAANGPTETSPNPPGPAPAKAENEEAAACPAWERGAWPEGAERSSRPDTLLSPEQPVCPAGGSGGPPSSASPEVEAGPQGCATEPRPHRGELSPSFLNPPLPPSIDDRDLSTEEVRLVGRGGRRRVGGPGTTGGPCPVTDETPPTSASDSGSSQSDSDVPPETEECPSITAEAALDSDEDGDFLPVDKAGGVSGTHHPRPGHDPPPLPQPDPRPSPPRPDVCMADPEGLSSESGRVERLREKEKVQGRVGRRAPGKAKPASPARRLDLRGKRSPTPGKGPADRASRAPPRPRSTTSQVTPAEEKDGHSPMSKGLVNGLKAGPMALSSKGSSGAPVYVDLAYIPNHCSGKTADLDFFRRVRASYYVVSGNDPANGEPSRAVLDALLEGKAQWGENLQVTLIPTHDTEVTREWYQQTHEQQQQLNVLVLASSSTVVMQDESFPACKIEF

Row | Substance | solubility change mitosis (log2) (HeLa Kyoto [1]) | solubility in G1/S (log2) (HeLa Kyoto [2])
1 | MAMQEKYPTEGISHVTSPSSDVIQKGSSLGTEWQTPVISEPFRSRFSRCSSVADSGDTAIGTSCSDIAEDFCSSSGSPPFQPIKSHVTIPTAHVMPSTLGTSPAKPNSTPVGPSSSKLPLSGLAESVGMTRNGDLGAMKHSPGLSRDLMYFSGATGENGIEQSWFPAVGHERQEEARKFDIPSMESTLNQSAMMETLYSDPHHRVRFHNPRTSTSKELYRVLPEAKKAPGSGAVFERNGPHSNSSGVLPLGLQPAPGLSKPLPSQVWQPSPDTWHPREQSCELSTCRQQLELIRLQMEQMQLQNGAICHHPAAFGPSLPILEPAQWISILNSNEHLLKEKELLIDKQRKHISQLEQKVRESELQVHSALLGRPAPFGDVCLLRLQELQRENTFLRAQFAQKTEALSREKIDLEKKLSASEVEVQLIRESLKVALQKHSEEVKKQEERVKGRDKHINNLKKKCQKESEQNREKQQRIETLERYLADLPTLEDHQKQSQQLKDSELKSTELQEKVTELESLLEETQAICREKEIQLESLRQREAEFSSAGHSLQDKQSVEETSGEGPEVEMESWQKRYDSLQKIVEKQQQKMDQLRSQVQSLEQEVAQEEGTSQALREEAQRRDSALQQLRTAVKELSVQNQDLIEKNLTLQEHLRQAQPGSPPSPDTAQLALELHQELASCLQDLQAVCSIVTQRAQGHDPNLSLLLGIHSAQHPETQLDLQKPDVIKRKLEEVQQLRRDIEDLRTTMSDRYAQDMGENCVTQ [CEP85] | -0.194 | 0.35
2 | MAP1A | -0.0549 | -0.122
3 | MAPGSRGERSSFRSRRGPGVPSPQPDVTMLSRLLKEHQAKQNERKELQEKRRREAITAATCLTEALVDHLNVGVAQAYMNQRKLDHEVKTLQVQAAQFAKQTGQWIGMVENFNQALKEIGDVENWARSIELDMRTIATALEYVYKGQLQSAPS [BLOC1S1] | 0.133 | 0.51
4 | MAPVSGSRSPDREASGSGGRRRSSSKSPKPSKSARSPRGRRSRSHSCSRSGDRNGLTHQLGGLSQGSRNQSYRSRSRSRSRERPSAPRGIPFASASSSVYYGSYSRPYGSDKPWPSLLDKEREESLRQKRLSERERIGELGAPEVWGLSPKNPEPDSDEHTPVEDEEPKKSTTSASTSEEEKKKKSSRSKERSKKRRKKKSSKRKHKKYSEDSDSDSDSETDSSDEDNKRRAKKAKKKEKKKKHRSKKYKKKRSKKSRKESSDSSSKESQEEFLENPWKDRTKAEEPSDLIGPEAPKTLTSQDDKPLNYGHALLPGEGAAMAEYVKAGKRIPRRGEIGLTSEEIASFECSGYVMSGSRHRRMEAVRLRKENQIYSADEKRALASFNQEERRKRENKILASFREMVYRKTKGKDDK [NKAP] | 0.107 | -0.301
5 | MAQEKMELDLEPDTSYGGTLRRSSSAPLIHGLSDLSQVFQPYTLRTRRNSTTIMSRHSLEEGLDMVNRETAHEREMQTAMQISQSWDESLSLSDSDFDKPEKLYSPKRIDFTPVSPAPSPTRGFGKMFVSSSGLPPSPVPSPRRFSRRSQSPVKCIRPSVLGPLKRKGEMETESQPKRLFQGTTNMLSPDAAQLSDLSSCSDILDGSSSSSGLSSDPLAKGSATAESPVACSNSCSSFILMDDLSPK [FAM122B] | -0.79 | 1.18
6 | MARRSQSSSQGDNPLAPGYLPPHYKEYYRLAVDALAEGGSEAYSRFLATEGAPDFLCPEELEHVSRHLRPPQYVTREPPEGSLLDVDMDGSSGTYWPVNSDQAVPELDLGWPLTFGFQGTEVTTLVQPPPPDSPSIKDEARRMIRSAQQVVAVVMDMFTDVDLLSEVLEAAARRVPVYILLDEMNAQHFLDMADKCRVNLQHVDFLRVRTVAGPTYYCRTGKSFKGHVKEKFLLVDCAVVMSGSYSFMWSFEKIHRSLAHVFQGELVSSFDEEFRILFAQSEPLVPSAAALARMDAYALAPYAGAGPLVGVPGVGAPTPFSFPKRAHLLFPPPREEGLGFPSFLDPDRHFLSAFRREEPPRMPGGALEPHAGLRPLSRRLEAEAGPAGELAGARGFFQARHLEMDAFKRHSFATEGAGAVENFAAARQVSRQTFLSHGDDFRFQTSHFHRDQLYQQQYQWDPQLTPARPQGLFEKLRGGRAGFADPDDFTLGAGPRFPELGPDGHQRLDYVPSSASREVRHGSDPAFAPGPRGLEPSGAPRPNLTQRFPCQAAARPGPDPAPEAEPERRGGPEGRAGLRRWRLASYLSGCHGEDGGDDGLPAPMEAEAYEDDVLAPGGRAPAGDLLPSAFRVPAAFPTKVPVPGPGSGGNGPEREGPEEPGLAKQDSFRSRLNPLVQRSSRLRSSLIFSTSQAEGAAGAAAATEKVQLLHKEQTVSETLGPGGEAVRSAASTKVAELLEKYKGPARDPGGGAGAITVASHSKAVVSQAWREEVAAPGAVGGERRSLESCLLDLRDSFAQQLHQEAERQPGAASLTAAQLLDTLGRSGSDRLPSRFLSAQSHSTSPQGLDSPLPLEGSGAHQVLHNESKGSPTSAYPERKGSPTPGFSTRRGSPTTGFIEQKGSPTSAYPERRGSPVPPVPERRSSPVPPVPERRGSLTLTISGESPKAGPAEEGPSGPMEVLRKGSLRLRQLLSPKGERRMEDEGGFPVPQENGQPESPRRLSLGQGDSTEAATEERGPRARLSSATANALYSSNLRDDTKAILEQISAHGQKHRAVPAPSPGPTHNSPELGRPPAAGVLAPDMSDKDKCSAIFRSDSLGTQGRLSRTLPASAEERDRLLRRMESMRKEKRVYSRFEVFCKKEEASSPGAGEGPAEEGTRDSKVGKFVPKILGTFKSKK [FAM83H] | -0.0789 | -0.733
7 | MASATAPAAAVPTLASPLEQLRHLAEELRLLLPRVRVGEAQETTEEFNREMFWRRLNEAAVTVSREATTLTIVFSQLPLPSPQETQKFCEQVHAAIKAFIAVYYLLPKDQGITLRKLVRGATLDIVDGMAQLMEVLSVTPTQSPENNDLISYNSVWVACQQMPQIPRDNKAAALLMLTKNVDFVKDAHEEMEQAVEECDPYSGLLNDTEENNSDNHNHEDDVLGFPSNQDLYWSEDDQELIIPCLALVRASKACLKKIRMLVAENGKKDQVAQLDDIVDISDEISPSVDDLALSIYPPMCHLTVRINSAKLVSVLKKALEITKASHVTPQPEDSWIPLLINAIDHCMNRIKELTQSELEL [CCNDBP1] | -0.176 | 0.509
8 | MASDGARKQFWKRSNSKLPGSIQHVYGAQHPPFDPLLHGTLLRSTAKMPTTPVKAKRVSTFQEFESNTSDAWDAGEDDDELLAMAAESLNSEVVMETANRVLRNHSQRQGRPTLQEGPGLQQKPRPEAEPPSPPSGDLRLVKSVSESHTSCPAESASDAAPLQRSQSLPHSATVTLGGTSDPSTLSSSALSEREASRLDKFKQLLAGPNTDLEELRRLSWSGIPKPVRPMTWKLLSGYLPANVDRRPATLQRKQKEYFAFIEHYYDSRNDEVHQDTYRQIHIDIPRMSPEALILQPKVTEIFERILFIWAIRHPASGYVQGINDLVTPFFVVFICEYIEAEEVDTVDVSGVPAEVLCNIEADTYWCMSKLLDGIQDNYTFAQPGIQMKVKMLEELVSRIDEQVHRHLDQHEVRYLQFAFRWMNNLLMREVPLRCTIRLWDTYQSEPDGFSHFHLYVCAAFLVRWRKEILEEKDFQELLLFLQNLPTAHWDDEDISLLLAEAYRLKFAFADAPNHYKK [TBC1D22A] | -0.253 | 0.31
9 | MASESSPLLAYRLLGEEGVALPANGAGGPGGASARKLSTFLGVVVPTVLSMFSIVVFLRIGFVVGHAGLLQALAMLLVAYFILALTVLSVCAIATNGAVQGGGAYFMISRTLGPEVGGSIGLMFYLANVCGCAVSLLGLVESVLDVFGADATGPSGLRVLPQGYGWNLLYGSLLLGLVGGVCTLGAGLYARASFLTFLLVSGSLASVLISFVAVGPRDIRLTPRPGPNGSSLPPRFGHFTGFNSSTLKDNLGAGYAEDYTTGAVMNFASVFAVLFNGCTGIMAGANMSGELKDPSRAIPLGTIVAVAYTFFVYVLLFFLSSFTCDRTLLQEDYGFFRAISLWPPLVLIGIYATALSASMSSLIGASRILHALARDDLFGVILAPAKVVSRGGNPWAAVLYSWGLVQLVLLAGKLNTLAAVVTVFYLVAYAAVDLSCLSLEWASAPNFRPTFSLFSWHTCLLGVASCLLMMFLISPGAAGGSLLLMGLLAALLTARGGPSSWGYVSQALLFHQVRKYLLRLDVRKDHVKFWRPQLLLLVGNPRGALPLLRLANQLKKGGLYVLGHVTLGDLDSLPSDPVQPQYGAWLSLVDRAQVKAFVDLTLSPSVRQGAQHLLRISGLGGMKPNTLVLGFYDDAPPQDHFLTDPAFSEPADSTREGSSPALSTLFPPPRAPGSPRALNPQDYVATVADALKMNKNVVLARASGALPPERLSRGSGGTSQLHHVDVWPLNLLRPRGGPGYVDVCGLFLLQMATILGMVPAWHSARLRIFLCLGPREAPGAAEGRLRALLSQLRIRAEVQEVVWGEGAGAGEPEAEEEGDFVNSGRGDAEAEALARSANALVRAQQGRGTGGGPGGPEGGDAEGPITALTFLYLPRPPADPARYPRYLALLETLTRDLGPTLLVHGVTPVTCTDL [SLC12A9] | 0.119 | -0.0513
10 | MASGVGAAFEELPHDGTCDECEPDEAPGAEEVCRECGFCYCRRHAEAHRQKFLSHHLAEYVHGSQAWTPPADGEGAGKEEAEVKVEQEREIESEAGEESESEEESESEEESETEEESEDESDEESEEDSEEEMEDEQESEAEEDNQEEGESEAEGETEAESEFDPEIEMEAERVAKRKCPDHGLDLSTYCQEDRQLICVLCPVIGAHQGHQLSTLDEAFEELRSKDSGGLKAAMIELVERLKFKSSDPKVTRDQMKMFIQQEFKKVQKVIADEEQKALHLVDIQEAMATAHVTEILADIQSHMDRLMTQMAQAKEQLDTSNESAEPKAEGDEEGPSGASEEEDT [TRIM44] | -0.202 | -0.118
11 | MASLQRKGLQARILTSEEEEKLKRDQTLVSDFKQQKLEQEAQKNWDLFYKRNSTNFFKDRHWTTREFEELRSCREFEDQKLTMLEAGCGVGNCLFPLLEEDPNIFAYACDFSPRAIEYVKQNPLYDTERCKVFQCDLTKDDLLDHVPPESVDVVMLIFVLSAVHPDKMHLVLQNIYKVLKPGKSVLFRDYGLYDHAMLRFKASSKLGENFYVRQDGTRSYFFTDDFLAQLFMDTGYEEVVNEYVFRETVNKKEGLCVPRVFLQSKFLKPPKNPSPVVLGLDPKS [METTL6] | 0.018 | 0.0543
12 | MASNSSSCPTPGGGHLNGYPVPPYAFFFPPMLGGLSPPGALTTLQHQLPVSGYSTPSPATIETQSSSSEEIVPSPPSPPPLPRIYKPCFVCQDKSSGYHYGVSACEGCKGFFRRSIQKNMVYTCHRDKNCIINKVTRNRCQYCRLQKCFEVGMSKESVRNDRNKKKKEVPKPECSESYTLTPEVGELIEKVRKAHQETFPALCQLGKYTTNNSSEQRVSLDIDLWDKFSELSTKCIIKTVEFAKQLPGFTTLTIADQITLLKAACLDILILRICTRYTPEQDTMTFSDGLTLNRTQMHNAGFGPLTDLVFAFANQLLPLEMDDAETGLLSAICLICGDRQDLEQPDRVDMLQEPLLEALKVYVRKRRPSRPHMFPKMLMKITDLRSISAKGAERVITLKMEIPGSMPPLIQEMLENSEGLDTLSGQPGGGGRDGGGLAPPPGSCSPSLSPSSNRSSPATHSP [RARA] | -0.153 | 0.18
13 | MASPSKAVIVPGNGGGDVTTHGWYGWVKKELEKIPGFQCLAKNMPDPITARESIWLPFMETELHCDEKTIIIGHSSGAIAAMRYAETHRVYAIVLVSAYTSDLGDENERASGYFTRPWQWEKIKANCPYIVQFGSTDDPFLPWKEQQEVADRLETKLHKFTDCGHFQNTEFHELITVVKSLLKVPA [RBBP9] | 0.00166 | 0.42
